In this experiment the target is IL-2Rαβ (UniProt P01589). Briefly: in vitro binding affinity against IL-2 as standard; method presumably the SPR of Example 2 (Biacore T-100, receptor-Fc captured, EC50 from RU against concentration). Background: SPR reads the build-up and loss of mass on a sensor chip optically.

This is an account of results in patent US20200016206A1.

Sequence of UniProt P01589 (P01589 22-213 limits assumed): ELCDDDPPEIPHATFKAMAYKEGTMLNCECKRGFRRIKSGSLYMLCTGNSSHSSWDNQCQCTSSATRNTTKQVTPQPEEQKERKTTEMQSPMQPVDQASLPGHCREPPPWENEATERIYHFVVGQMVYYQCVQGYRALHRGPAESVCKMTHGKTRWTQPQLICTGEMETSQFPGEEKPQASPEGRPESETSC

“RSLAIL-2 (rIL-2 with the aldesleukin sequence, releasably PEGylated with mPEG2-C2-Fmoc-20kD-NHS) (from UniProt P60568 22-153) (ligand)”: the fold decrease in affinity relative to IL-2 is 60 fold.
